“Also recorded” adds a separate entry of the source.
What was measured:
[1] = molecular target: T1, Gαi1-YFP / CFP-Gβ1 / Gγ2 heterotrimer (Gi) (Homo sapiens, UniProt P63096); assay: FRET assay of Gi heterotrimer dissociation after EGF in GIV-depleted HeLa cells; type: cell-based
T1 construct: expressed in transfected cells; host or cells: HeLa cells stably depleted of GIV by shRNA
Protocol: HeLa cells stably depleted of GIV by shRNA were grown to 60-70% confluence in sterile 35 mm MatTek glass bottom dishes. One microgram each of various donor and acceptor plasmid constructs were transfected with Trans-IT-LT1 transfection reagent (Minis Bio LLC) using manufacturer's protocol. Cells were starved overnight in serum-free DMEM (Gibco), transduced the following morning with TAT proteins for 30 min, washed with PBS and subsequently the media was switched to DMEM without phenol red before live cell imaging. EGF stimulation was carried out ˜4 h after TAT transduction. Fluorescence microscopy studies were conducted on single cells in mesoscopic regime to avoid inhomogeneities from samples as previously rationalized by Midde et al. (55-57). Olympus FV1000 inverted confocal laser scanning microscope was used for live cell FRET imaging (UCSD-Neuroscience core facility). The microscope is stabilized on a vibration proof platform, caged in temperature controlled (37° C.) and CO2 (5%) supplemented chamber. A 60×1.49 N. An oil immersed objective designed to minimize chromatic aberration and enhance resolution for 405-605 nm imaging was used. Olympus Fluoview inbuilt software was used for data acquisition through the method of sensitized emission. A 405 nm laser diode was used to excite ECFP and 515 nm Argon-ion laser was used to excite EYFP. The bandwidth of spectral emission was adjusted through grating to minimize bleed through. Enhanced CFP emission was collected from 425 to 500 nm and EYFP emission was collected through 535-600 nm and passed through a […] confocal pinhole before being sent to photomultiplier tube to reject out of plane focused light. Every field of view is imaged sequentially through ECFPex/ECFPem, ECFPex/EYFPem and EYFPex/EYFPem (3 excitation and emission combinations) and saved as donor, transfer and acceptor image files through an inbuilt wizard.
To obtain the FRET images and efficiency of energy transfer values a RiFRET plugin in Image J software was used (58). FRET images were obtained by pixel-by-pixel ratiometric intensity method and efficiency of transfer was calculated by the ratio of intensity in transfer channel to the quenched (corrected) intensity in the donor channel. Cells transfected with CFP and YFP alone were imaged under all three previously mentioned excitation and emission combinations and are used to correct for cross-talk. Furthermore, untransfected cells and a field of view without cells were imaged to correct for background, autofluorescence and light scattering. Cells chosen for imaging were ensured for identical expression of donor and acceptor probes by the photons collected in individual channels.

[2] = test system: HeLa cells; assay: Scratch-wound 2D cell migration assay; type: cell-based; conditions: compared to mock treatment, 12 h and 24 h
Protocol: Scratch-wound assays were done as described (49). Briefly, monolayer cultures (100% confluent) of HeLa cells were incubated first in a 0.2% serum media over night. The following morning, monolayers of HeLa cells were first transduced with TAT peptides for 30 min, then washed three times with PBS and placed again in a 0.2% serum media for 1 h 30 min before scratch-wounding. The wounds were created using a 20 μL pipette tip. Transduction with TAT peptides was repeated at 12 h into the wound healing assay (a total of two times). Healing wounds were monitored by phase-contrast microscopy over the next 24 h and serially photographed using a Canon digital SLR camera. To quantify cell migration (expressed as percent of wound closure) the acquired images were analyzed using Image J software to measure open wound area. Results were expressed as % closure by calculating the difference between the wound area at 0 h, 12 h and that at 24 h divided by the area at 0 h×100. Invasion assays were performed using Corning Transwell plates according to the manufacturer's protocol.
Scratch-wound assays were done as described previously (13). […] Healing wounds were monitored by phase-contrast microscopy over the next 24 h and migration index was quantified (expressed as % wound closure) by measuring the wounded area using Image J software.

[3] = test system: MDA MB231 cells; assay: Transwell tumor cell invasion assay through basement membrane extract; type: cell-based; conditions: compared to TAT-control peptides; 50 nM EGF
Protocol: Briefly, after a serum starvation overnight, MDA MB231 cells were first transduced with TAT peptides for 30 min as above. Transduced cells were trypsinized, counted, and placed in a Corning transwell permeable support coated with Cultrex Basement Membrane Extract (7×10^4 cells per well). Media without FBS but containing EGF ligand (50 nM) was placed within the bottom chamber of each well to trigger directional 3D invasion. As done in the 2D migration assays, transduction with TAT peptides was repeated one more time ˜10-12 h into the assay (total of two times). At 22-24 h, a Q-tip was used to meticulously remove all cells from the surface of the permeable membrane facing the upper chamber. […] To quantify cell invasion (expressed as number of invasive cells/high power field) ˜10-12 random fields per membrane insert per condition were analyzed for number of crystal violet stained cells. […]
Invasion assays were performed using Corning® Transwell plates according to the manufacturer's protocol. Transduced cells were trypsinized, counted and placed in a Corning transwell permeable support coated with Cultrex® Basement Membrane Extract (7×10^4 cells/well). […] Cell invasion (expressed as number of invasive cells/high power field) was quantified by analyzing ˜10-12 random fields/membrane insert/condition for number of crystal violet stained cells.

[4] = test system: 6-mm punch biopsy dermal wounds; assay: Dermal wound healing in mice, topical TAT proteins; type: in vivo; conditions: for wound healing: topical 15 μg (~500 pmol) every 24 h for 8 d, vs TAT control
Protocol: Under general anesthesia, two 6-mm diameter punch biopsy wounds were created on the shaved dorsal surface of 8 wk old female C56BL/6 wild-type mice under sterile conditions. Wounds were then treated with 15 μg (˜500 pmol) of TAT proteins every 24 h for 8 d after injury, and photographed every 48 h over that period, and wound area was manually traced by placing a transparent film over the wound and tracing the outline with a permanent marker. To measure the wound area, the edges of the dermis were determined as the wound edge. […] The tracing was then scanned and measured using an image analysis program (NIH Image J Software). Five mice, each with 2 wounds (a total of 10 wounds) were studied in each treatment arm, and their rate of closure was analyzed. These studies were carried out in a blinded manner such that aliquots of purified TAT proteins were prepared and color coded before their arrival at the animal facility. Consequently, the personnel who performed dermal punch biopsies, daily treatment with TAT proteins, photography and measurement of wound area was blinded to the identity of the compound. The study protocol (FIG. 4B) included standard wound care as per IACUC guidelines.

T1 sequence (P63096 2-354 limits assumed, one chain of several): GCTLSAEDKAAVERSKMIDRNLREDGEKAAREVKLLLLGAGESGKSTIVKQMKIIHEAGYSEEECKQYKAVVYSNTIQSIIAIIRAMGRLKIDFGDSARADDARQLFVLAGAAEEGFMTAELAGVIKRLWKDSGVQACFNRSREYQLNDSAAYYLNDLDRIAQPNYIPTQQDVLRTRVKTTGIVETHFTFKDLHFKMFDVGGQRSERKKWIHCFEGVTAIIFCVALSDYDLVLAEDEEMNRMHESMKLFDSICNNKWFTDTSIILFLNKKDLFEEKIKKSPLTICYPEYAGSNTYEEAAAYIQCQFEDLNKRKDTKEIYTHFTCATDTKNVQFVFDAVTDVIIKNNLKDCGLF

B1: TAT-GIV-CT-WT: Recombinant cell-permeable fusion of TAT-PTD, His and HA tags, linker and human GIV C-terminus (aa 1660-1870), wild type; SEQ ID NO: 2 (protein)
chain: MRGSHHHHHHGMASMTGGQQMGRDLYDDDDKDRWGSKLGYGRKKRRQRRRGGSTMSGYPYDVPDYAGSMGGSGHSGETLESRHHKIKTGSPGSEVVTLQQFLEESNKLTSVQIKSSSQENLLDEVMKSLSVSSDFLGKDKPVSCGLARSVSGKTPGDFYDRRTTKPEFLRPGPRKTEDTYFISSAGKPTPGTQGKIKLVKESSLSRQSKDSNPYATLPRASSVISTAEGTTRRTSIHDFLTKDSRLPISVDSPPAAADSNTTAASNVDKVQESRNSKSRSREQQSS
[1]; 50 nM EGF, 5 min
  loss of FRET / dissociation of trimeric Gi in response to EGF: significant loss of FRET; also recorded: sufficient to trigger dissociation of trimeric Gi
[1]; 50 nM EGF, 5 min, p=0.0011
  FRET after EGF stimulation: 0.15±0.07
[1]; plasma membrane ROIs, t0
  FRET before EGF stimulation: 0.22±0.04
[2]
  2D-migration and wound closure: enhances
[3]
  invasion through basement membrane matrix in response to EGF gradient: significantly enhanced
[4]; topical 500 pmol daily
  rate of wound healing relative to TAT-treated controls: ~2 × the rate
  time of wound healing relative to TAT-treated controls: a day earlier
[4]
  wound healing: accelerated wound healing; also recorded: accelerates

B2: TAT-GIV-CT-FA: GEF-deficient F1685A mutant of the TAT-GIV-CT peptide, dominant-negative; SEQ ID NO: 3 (protein)
chain: MRGSHHHHHHGMASMTGGQQMGRDLYDDDDKDRWGSKLGYGRKKRRQRRRGGSTMSGYPYDVPDYAGSMGGSGHSGETLESRHHKIKTGSPGSEVVTLQQALEESNKLTSVQIKSSSQENLLDEVMKSLSVSSDFLGKDKPVSCGLARSVSGKTPGDFYDRRTTKPEFLRPGPRKTEDTYFISSAGKPTPGTQGKIKLVKESSLSRQSKDSNPYATLPRASSVISTAEGTTRRTSIHDFLTKDSRLPISVDSPPAAADSNTTAASNVDKVQESRNSKSRSREQQSS
[1]; 50 nM EGF, 5 min
  loss of FRET / dissociation of trimeric Gi in response to EGF: No similar loss of FRET
[1]; 50 nM EGF, 5 min, listed as FA
  loss of FRET / dissociation of trimeric Gi in response to EGF: not
[2]; listed as FA
  2D-migration and wound closure: delayed wound closure and not
[3]
  invasion through basement membrane matrix in response to EGF gradient: virtually abolished
[4]; listed as FA
  wound healing: delayed wound healing; also recorded: retards
